Measurements published in article PMC2491553, “P68 RNA Helicase (DDX5) Alters Activity of Cis- and Trans-Acting Factors of the Alternative Splicing of H-Ras”.

T1: GST-hnRNP H (GST-H) (UniProt P31943 1-449)
T1 sequence: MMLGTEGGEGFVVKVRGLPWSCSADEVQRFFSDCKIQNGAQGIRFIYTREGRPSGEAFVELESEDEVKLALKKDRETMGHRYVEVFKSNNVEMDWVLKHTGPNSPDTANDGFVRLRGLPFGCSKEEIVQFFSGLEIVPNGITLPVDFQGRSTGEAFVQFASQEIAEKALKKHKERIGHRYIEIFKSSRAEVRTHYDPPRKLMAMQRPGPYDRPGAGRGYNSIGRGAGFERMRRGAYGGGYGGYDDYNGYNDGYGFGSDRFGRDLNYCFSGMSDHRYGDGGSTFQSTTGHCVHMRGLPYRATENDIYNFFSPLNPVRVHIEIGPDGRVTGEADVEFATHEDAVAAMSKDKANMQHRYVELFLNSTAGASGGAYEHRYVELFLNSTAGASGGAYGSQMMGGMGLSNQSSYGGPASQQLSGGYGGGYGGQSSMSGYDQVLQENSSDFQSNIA


What was measured:
GST-hnRNP H (GST-H) = target: T1, GST-hnRNP H (GST-H); test: EMSA; 100-400 ng GST-H; Crosslinking: 1x Roeder D buffer, 1 mM ATP, 1.7 mM MgCl2, 0.1 uM heparin, 30 min 30 C; EMSA: 1 pmol 32P-RNA, native 6-8% PAGE, buffer details not in material; conditions: protein: recombinant; tags: GST; label: 32P
GST-FUS (FUS/TLS) = GST-FUS (FUS/TLS) (UniProt P35637 1-526); test: EMSA; GST-FUS; Crosslinking: 1x Roeder D buffer, 1 mM ATP, 1.7 mM MgCl2, 0.1 uM heparin, 30 min 30 C; EMSA: 1 pmol 32P-RNA, native 6-8% PAGE, buffer details not in material; conditions: protein: recombinant; tags: GST; label: 32P
GST-FUS (FUS/TLS), sequence (P35637 whole entry): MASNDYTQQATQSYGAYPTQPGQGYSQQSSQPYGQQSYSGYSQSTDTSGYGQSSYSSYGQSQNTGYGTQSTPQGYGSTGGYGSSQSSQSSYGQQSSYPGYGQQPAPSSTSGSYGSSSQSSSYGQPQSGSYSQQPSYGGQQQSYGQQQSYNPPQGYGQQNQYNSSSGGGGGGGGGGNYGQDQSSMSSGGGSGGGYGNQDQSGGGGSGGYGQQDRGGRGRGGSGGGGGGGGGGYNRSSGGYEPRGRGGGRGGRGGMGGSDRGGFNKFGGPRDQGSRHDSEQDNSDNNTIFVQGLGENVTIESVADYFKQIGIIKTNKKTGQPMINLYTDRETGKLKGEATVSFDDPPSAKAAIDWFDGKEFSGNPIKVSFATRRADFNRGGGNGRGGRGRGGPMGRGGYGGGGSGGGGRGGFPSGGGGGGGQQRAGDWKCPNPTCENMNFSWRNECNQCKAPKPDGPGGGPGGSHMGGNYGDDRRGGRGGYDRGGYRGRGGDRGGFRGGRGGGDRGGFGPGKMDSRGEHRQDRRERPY

Row | Binder | binding result (GST-hnRNP H (GST-H)) | binding result (GST-FUS (FUS/TLS))
1 | GGGACGCCGGGGUCUGGGCUCACGCCC (ssRNA) [ΔrasISS1] | no binding | 
2 | GGGACGGCAGGGCGUGAGGGAGGCGAGGGCCGGGGUCUGGGCUCACGCCC (ssRNA) [rasISS1] | binds | no binding
